experiment: yeast display, Sf9 membrane polyspecificity reagent, FACS + sequencing; frameworks hold sequencing errors
In short: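 A nanobody's polyreactivity label depends on the gate it was sorted from. Yeast display cells were stained with 10% biotinylated, detergent-solubilized Sf9 membrane reagent for 1 hour at 4 °C, enriched on streptavidin microbeads and sorted by FACS. The low and high (top ~1%) gates were set on anti-HA fluorescence for expression and streptavidin fluorescence for reagent binding.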

Question: Which “polyreactivity (PSR sort gate)” value does the source give for “QVQLVESGGGLVQAGGSLRLSCAASGITFPLYAMGWYRQAPGKERELVATISGRGGSTYYADSVKGRFTISRDNAKNTVYLQMNSLKPEDTAVYYCNADFRSPYFLLSWYHSGDYWGQGTQVTGSS” here?
Answer: low polyreactivity

Question: With “QVQLVESGGGLVQAGGSLRLSCAASGITFPLYVMGWSRQAPGKERELVAAISASGGSTYADSVKGRFTISRDNAKNTVYLQMNSLKPEDTAVYYCNADVYVGYDYDYWGQGTLVTVSS” as the sequence, how does the “polyreactivity (PSR sort gate)” value read?
Answer: low polyreactivity

Question: With “QVQLVESGGGLVQAGGSLRLSCAASGITFPNYTMGWYRQAPWKERELLAAISYNGGGTYYADSVNGRFTISRYKAKNTVYVQKNSLKPEDTAVYYCAALGLYGDYLRYDYWGQGTQVSVSS” as the sequence, how does the “polyreactivity (PSR sort gate)” value read?
Answer: high polyreactivity

Question: Which “polyreactivity (PSR sort gate)” value does the source give for “QVQLVESGGGLVQAGGSLRLSCAASGITFPRYAMGWYRQAPGKERELVAAISKSGGRTYYADSVKGRFTISRDNAKNTVYLQMISLKPEDTAVYYCAADPLLGYLSHYYWGQGTQVTVSS” here?
Answer: high polyreactivity

Question: Which “polyreactivity (PSR sort gate)” value does the source give for “QVQLVESGGGLVQAGGSLRLSCAASGITFPRYAMGWYRQAPGKERELVATITRSGGGTYYADSVKGRFTISRDNAKNTVYLQMNSLKPEDTAVYYCAAGALQRGVYGYGYWGQGTQVTVSS” here?
Answer: high polyreactivity

Question: With “QVQLVESGGGLVQAGGSLRLSCAASGITFPSYVMGWYRQAPGKERELVAAISWRGGSTYYADSVKGRFTISRDNAKNTVYLQMNSLKPEDTAVYYCAAGSARDDDYWGQGTQVTVSS” as the sequence, how does the “polyreactivity (PSR sort gate)” value read?
Answer: high polyreactivity

Question: For “QVQLVESGGGLVQAGGSLRLSCAASGITFPYYAMGWYREAPGKERELVAAITQSGGSTYYADSVKGRFTISRDNAKNTVYLQMNSLKPEDTAVYYCAADSSRSVNYYRYDYWGQGTQVTLSS”, which “polyreactivity (PSR sort gate)” value is on record?
Answer: low polyreactivity

Question: Which “polyreactivity (PSR sort gate)” value does the source give for “QVQLVESGGGLVQAGGSLRLSCAASGITFPYYAMGWYRQAPGKERELVAAISAGGTRTYYADSVKGRFTISRDNAKNNVYLQMNSLKPEDTAVYYCAARVWPIVQNYYWGQGTQVTVSS” here?
Answer: high polyreactivity

Question: Which “polyreactivity (PSR sort gate)” value does the source give for “QVQLVESGGGLVQAGGSLRLSCAASGITFPYYAMGWYRQAPGKERELVAAITIRSGRTYYADSVKGRFTISRDNAMNTVYLQMNSLKPEDTAVYYCAARLSNTYGYWGQGTQVTVSS” here?
Answer: high polyreactivity

Question: For “QVQLVESGGGLVQAGGSLRLSCAASGITFPYYAMGWYRQAPGKERELVASINRSGGTNYADSVKGRFTISRDNAKNTVYLPMNSLKPVDTAVYYCAAPGRYGEYDYWGQGTQVNVSS”, which “polyreactivity (PSR sort gate)” value is on record?
Answer: low polyreactivity

Question: With “QVQLVESGGGLVQAGGSLRLSCAASGITFPYYGMGWYRQAPGKERELVAAISRGGRTNYADSVKGRFTISRDNAKNTVYLQMNSLKPEDTAVYYCNTRTWSVFAKSDYWGQGTQVTVSS” as the sequence, how does the “polyreactivity (PSR sort gate)” value read?
Answer: high polyreactivity

Question: For “QVQLVESGGGLVQAGGSLRLSCAASGITFQNYAMGWYRQAPGKEMELVAAITRSGGRTYYADSVKGRFTNSRDNANYTVYLQMNSLKQEDTAVYYCAVYGIGRPYWYDYWGQGTQVTVSS”, which “polyreactivity (PSR sort gate)” value is on record?
Answer: high polyreactivity

Question: Which “polyreactivity (PSR sort gate)” value does the source give for “QVQLVESGGGLVQAGGSLRLSCAASGITFQNYAMGWYRQSPGKERELVAAITRSGGRTYYADSVKGRFTISRDNAKNTVYLQINSLKPEDTAVYYCAFYGIGRPYWYDYWGQGTQVTVSS” here?
Answer: high polyreactivity

Question: With “QVQLVESGGGLVQAGGSLRLSCAASGITFQSNAMGWYRQAPGKERELVAAIDWRGDSTYYADSVKGRFTISRDNAKNTVYLQMNSLKPEDTAVYYCNADISGSGQWDGYDYWGQGTQVTVSS” as the sequence, how does the “polyreactivity (PSR sort gate)” value read?
Answer: low polyreactivity

Question: Which “polyreactivity (PSR sort gate)” value does the source give for “QVQLVESGGGLVQAGGSLRLSCAASGITFQWNALGWYRQAPGTERELVAAITRSGGRTYYADSVKGRFTISRDNAKNTVYLQMYSLKPEDTAVYYCAARYWDNPYWFDYWGQGTQVTVSS” here?
Answer: high polyreactivity

Question: With “QVQLVESGGGLVQAGGSLRLSCAASGITFQYYAMGWYRQAPGKERELVAAISSGGSTYYADSVKGRFTISRDNAKNTVYLQMNILKPEDTAVYYCAAKRVFFGLNYDYWGQGTQVTVSS” as the sequence, how does the “polyreactivity (PSR sort gate)” value read?
Answer: high polyreactivity

Question: With “QVQLVESGGGLVQAGGSLRLSCAASGITFQYYAMGWYRQAPGKERELVAAITSSGVSTYYADSVKGRFTISRDNAKNTVYLQMNSLKPEDTAVYYCNTVVRGWSSSAYDDWGQGTQVTVSS” as the sequence, how does the “polyreactivity (PSR sort gate)” value read?
Answer: low polyreactivity

Question: For “QVQLVESGGGLVQAGGSLRLSCAASGITFQYYDMGWYRQAPGKEREFVAAISWRSGRTYYADSVKGRFTISRDNAKNTVYLQMNSLKPDDTAVYYCTAALYGVTTDMDYWGQGTQVTVSS”, which “polyreactivity (PSR sort gate)” value is on record?
Answer: high polyreactivity

Question: With “QVQLVESGGGLVQAGGSLRLSCAASGITFRFNAMGWYRQAPGKEREFVAAITYSGDSTYYADSVKGRFTISRDNAKNTVYLQMNSLKPEDTAVYYCAADASSKLYDYWGQGTQVTVSS” as the sequence, how does the “polyreactivity (PSR sort gate)” value read?
Answer: low polyreactivity

Question: With “QVQLVESGGGLVQAGGSLRLSCAASGITFRFYAMGWYRQAPGKERELVAVISRGGGTTYYADSVKGRFTISRDNAKNTVYLQMNSLKPEDTAVYYCNAVIAWYRSDEYDYWGQGTQVTVSS” as the sequence, how does the “polyreactivity (PSR sort gate)” value read?
Answer: high polyreactivity

Question: For “QVQLVESGGGLVQAGGSLRLSCAASGITFRGNAMGWYRQAPGKERELVATISSGGITNYADSVKGRFTISRDNAKNTVYLQMNSLKPEDTAVYSCAADLFVHKPRYQYSFDYWGQGTQVTVSS”, which “polyreactivity (PSR sort gate)” value is on record?
Answer: low polyreactivity

Question: With “QVQLVESGGGLVQAGGSLRLSCAASGITFRHNTMGWYRQAPGKERELVSTNYADSVKGRFTISRDNAKNTVYLQMNSLKPEDTAVYYCNADGTFEYDYWGQGTQVTVSS” as the sequence, how does the “polyreactivity (PSR sort gate)” value read?
Answer: low polyreactivity

Question: Which “polyreactivity (PSR sort gate)” value does the source give for “QVQLVESGGGLVQAGGSLRLSCAASGITFRNYAMGWYRQAPGKERELVAAITTSGSRTYYADSVKGRFTISRDNAKNTVYLQMNSLKPEDTAVYYCAAEKAPWQYYDFEYWGQGTQVTVSS” here?
Answer: high polyreactivity

Question: Which “polyreactivity (PSR sort gate)” value does the source give for “QVQLVESGGGLVQAGGSLRLSCAASGITFRNYARGWYRQAPGKERELVAAITTSGSRTYYEDSVKGRFTISRDNAKKTVYLQMNSLKPEDTAVYYCAAQQVPWQYYDFEYWGQGTQVTVSS” here?
Answer: high polyreactivity

Question: For “QVQLVESGGGLVQAGGSLRLSCAASGITFRRNAMGWYRQAPGKERELVARITGSGGSTYYADSVKGRFTISRDNAKNTVYLQMNSLKPEATAVYYCATERYGKYAMDYWGQGTQVTVSS”, which “polyreactivity (PSR sort gate)” value is on record?
Answer: high polyreactivity

Question: Which “polyreactivity (PSR sort gate)” value does the source give for “QVQLVESGGGLVQAGGSLRLSCAASGITFRRYAMGWYRQAPGKERELVASITRGGSTSYADSVKGRFRFSRDNAKNTVYLQMNSLKPEDTAVYYCAADAFRGFYWGQGTQVTVSS” here?
Answer: high polyreactivity

Question: With “QVQLVESGGGLVQAGGSLRLSCAASGITFRRYAMGWYRQAPGPEREFVATISGIGGNTYYADSVKGRFTISRANAKNPVYLQMNSLKPEDPAVYYCAADLWAGTYGEYDYWGQGPQVTVSS” as the sequence, how does the “polyreactivity (PSR sort gate)” value read?
Answer: high polyreactivity

Question: Which “polyreactivity (PSR sort gate)” value does the source give for “QVQLVESGGGLVQAGGSLRLSCAASGITFRRYVMGWYRQAPGKERELVARISSDGSTSYADSVKGRFTISRNNAKNTVYLQMNSLKPEDTAVYYCAAVHQWYVRYSTGYNYWGQGTQVTVSS” here?
Answer: high polyreactivity

Question: With “QVQLVESGGGLVQAGGSLRLSCAASGITFRSYAMGWNIQAPGKERELVAAITTGTRTYYADSVKGRFTISRDNAKNTVFLQMKSLKPEDTAVYYCARDGVGRVYGYLTPLGYDYWGHGTQVTVSS” as the sequence, how does the “polyreactivity (PSR sort gate)” value read?
Answer: low polyreactivity

Question: For “QVQLVESGGGLVQAGGSLRLSCAASGITFRSYAMGWYRQAPGKERELVAAISSTGRTYYADSVKGRFTISRDNAKNTVYLQMNSLKPEDTAVYYCATGGQGAFWGQGTQVTVSS”, which “polyreactivity (PSR sort gate)” value is on record?
Answer: high polyreactivity

Question: With “QVQLVESGGGLVQAGGSLRLSCAASGITFRSYAMGWYRQAPGKERELVAAITSGASTNYADSVKGRFTISRDNAKNTVYLQMNSLKPEDTAVYYCAATYHTWRGQYLWYDYWGQGTQVTVSS” as the sequence, how does the “polyreactivity (PSR sort gate)” value read?
Answer: low polyreactivity

Question: With “QVQLVESGGGLVQAGGSLRLSCAASGITFRTNAMGWYRQAPGKERELVAVISSTGGRTYYADSVKGRFTISRDNAKNTVYLQMNSLNPEDTAVYYCAARAKYRFGYDYWGQGTQVTVSS” as the sequence, how does the “polyreactivity (PSR sort gate)” value read?
Answer: high polyreactivity

Question: Which “polyreactivity (PSR sort gate)” value does the source give for “QVQLVESGGGLVQAGGSLRLSCAASGITFRTNTMGWYRQAPGKERELVAAITRSGVTTYYADSVKGRFTISRDNAKNTVYLQMNSLKPEDTAVYYCAARSTKYLYGYWGQGTQVTVSS” here?
Answer: high polyreactivity

Question: For “QVQLVESGGGLVQAGGSLRLSCAASGITFRTYAMGWYRQAPGKERELVAAISSSGGSTYYADSVKGRFTISRDNAKNTVYLQMNSLKPADTAVYYCAAEWIADLSSPVWYDYWGQGTQVTVSS”, which “polyreactivity (PSR sort gate)” value is on record?
Answer: high polyreactivity

Question: For “QVQLVESGGGLVQAGGSLRLSCAASGITFRWNAMGWYRPAPGKARELVAAITYRGGSTHYADSVKGRFTISRDNGKNSVYIQMNSLKPEDTAVYYCAVRRWPRYRWSDYWVQGTQVTVSS”, which “polyreactivity (PSR sort gate)” value is on record?
Answer: low polyreactivity

Question: For “QVQLVESGGGLVQAGGSLRLSCAASGITFRYNAMGWYRQAPGKERQLVAGITGSGGRTYYADSVKGRFTISRDNAKNSVYLQMNSLKPEDTAVYYCAAYPPARRTMDYWGQGTQVTVSS”, which “polyreactivity (PSR sort gate)” value is on record?
Answer: low polyreactivity

Question: Which “polyreactivity (PSR sort gate)” value does the source give for “QVQLVESGGGLVQAGGSLRLSCAASGITFRYYAMGWDRQAPGKERELVAAINRGGDSTYYADSVKGRFTISRDNAKNTVYLQMNSLKPEDTAVYYCAASSYYRGTFYPSYYWGQGTQVTVSS” here?
Answer: high polyreactivity

Question: For “QVQLVESGGGLVQAGGSLRLSCAASGITFRYYAMGWYRQAPGKERELVAAISDGGSTNYADSVKGRFTISRDNAKNTVYLQMNSLKPEDTAVYYCDADYRYLFDYWGQGTQVTVSS”, which “polyreactivity (PSR sort gate)” value is on record?
Answer: high polyreactivity

Question: With “QVQLVESGGGLVQAGGSLRLSCAASGITFRYYAMGWYRQAPGKERELVAAISGSGGSTYYADSVKGRFTISRDNAKNTVYLQMNSLKPEDTAVNYCNVDKGYSRSLRLGYDYWGQGTEVTVSS” as the sequence, how does the “polyreactivity (PSR sort gate)” value read?
Answer: high polyreactivity

Question: For “QVQLVESGGGLVQAGGSLRLSCAASGITFRYYAMGWYRQAPGKERELVAAISSTGGSTYYADSVKGRFTISRDNAKNTVYLQMNSLKPEDTAVYYCNADTTFYGYRTYRPENYWGQGTQVTVSS”, which “polyreactivity (PSR sort gate)” value is on record?
Answer: high polyreactivity

Question: Which “polyreactivity (PSR sort gate)” value does the source give for “QVQLVESGGGLVQAGGSLRLSCAASGITFRYYTMGWYRQAPGKERELVAAISRSGGSTYYADSVKGRFTISRDNAKNNVYLQMNSLKPEDTAVYYCAVDYTYDMDYWGQGTQVTVSS” here?
Answer: high polyreactivity

Reference: the nanobody polyreactivity screen of Harvey et al. (2022)
